Sequences and labels used below:
B1: FAM189A2 (parent)
chain: GSEAAVIPLDLGCTQVTQDGDIPN

This passage reports protein stability index results from the supplement of paper PMC10567573.
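Also: lentivirally expressed fusions sorted by FACS into six bins by GFP to DsRed ratio, PSI derived from sequencing read proportions per bin multiplied by bin number.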

This data set covers variants of B1. Description: protein stability index of a GFP-peptide fusion (GPS, HEK-293T) (PSI 1-6); higher = more stable. To be noted: c terminus: a fixed tail appended.
As for GSEAAVIPMDLGCTQVTQDGDIPN [L9M], the protein stability index came to 5.6.

As for GSEAAVIPQDLGCTQVTQDGDIPN [L9Q], the protein stability index stood at 5.69.

GSEAAVIPFDLGCTQVTQDGDIPN [L9F]: the protein stability index turned out to be 4.92.

For the variant GSEAAVIPVDLGCTQVTQDGDIPN [L9V], the protein stability index is 5.42.

With GSEAAVIPCDLGCTQVTQDGDIPN [L9C], the protein stability index amounted to 5.5.

Take GSEAAVIPEDLGCTQVTQDGDIPN [L9E]: the protein stability index was determined as 5.41.

As to GSEAAVIPKDLGCTQVTQDGDIPN [L9K], the protein stability index came to 5.46.

On to GSEAAVIPWDLGCTQVTQDGDIPN [L9W], for which the protein stability index is 4.67.

In the case of GSEAAVIPNDLGCTQVTQDGDIPN [L9N], the protein stability index turned out to be 5.55.

On to GSEAAVIPADLGCTQVTQDGDIPN [L9A], for which the protein stability index was 4.91.

GSEAAVIPHDLGCTQVTQDGDIPN [L9H]: the protein stability index was determined as 5.47.

On to GSEAAVIPGDLGCTQVTQDGDIPN [L9G], for which the protein stability index was 5.85.

On to GSEAAVIPSDLGCTQVTQDGDIPN [L9S], for which the protein stability index is 5.7.

Turning to GSEAAVIPYDLGCTQVTQDGDIPN [L9Y], the protein stability index was 5.31.

For the variant GSEAAVIPPDLGCTQVTQDGDIPN [L9P], the protein stability index came to 5.46.

As to GSEAAVIPIDLGCTQVTQDGDIPN [L9I], the protein stability index was determined as 5.15.

Turning to GSEAAVIPTDLGCTQVTQDGDIPN [L9T], the protein stability index was 5.5.

GSEAAVIPRDLGCTQVTQDGDIPN [L9R]: the protein stability index came to 5.22.

On to GSEAAVIPDDLGCTQVTQDGDIPN [L9D], for which the protein stability index turned out to be 5.48.

On to GSEAAVIPLDLGMTQVTQDGDIPN [C13M], for which the protein stability index worked out at 4.93.

Take GSEAAVIPLDLGNTQVTQDGDIPN [C13N]: the protein stability index amounted to 5.61.

For GSEAAVIPLDLGTTQVTQDGDIPN [C13T], the protein stability index is 5.48.

Take GSEAAVIPLDLGSTQVTQDGDIPN [C13S]: the protein stability index stood at 5.43.

In the case of GSEAAVIPLDLGGTQVTQDGDIPN [C13G], the protein stability index turned out to be 5.54.

Take GSEAAVIPLDLGWTQVTQDGDIPN [C13W]: the protein stability index was found to be 4.36.

Turning to GSEAAVIPLDLGHTQVTQDGDIPN [C13H], the protein stability index was 5.63.

Turning to GSEAAVIPLDLGATQVTQDGDIPN [C13A], the protein stability index amounted to 5.17.

For GSEAAVIPLDLGITQVTQDGDIPN [C13I], the protein stability index was found to be 5.73.

Take GSEAAVIPLDLGETQVTQDGDIPN [C13E]: the protein stability index turned out to be 5.54.

Consider GSEAAVIPLDLGRTQVTQDGDIPN [C13R], for which the protein stability index turned out to be 5.33.

With GSEAAVIPLDLGLTQVTQDGDIPN [C13L], the protein stability index was found to be 5.46.

Take GSEAAVIPLDLGPTQVTQDGDIPN [C13P]: the protein stability index was found to be 5.67.

On to GSEAAVIPLDLGYTQVTQDGDIPN [C13Y], for which the protein stability index was 5.3.

Consider GSEAAVIPLDLGQTQVTQDGDIPN [C13Q], for which the protein stability index came to 5.71.

As for GSEAAVIPLDLGKTQVTQDGDIPN [C13K], the protein stability index is 5.18.

For GSEAAVIPLDLGDTQVTQDGDIPN [C13D], the protein stability index worked out at 5.46.

Turning to GSEAAVIPLDLGVTQVTQDGDIPN [C13V], the protein stability index stood at 4.77.

Regarding GSEAAVIPLDLGFTQVTQDGDIPN [C13F], the protein stability index was found to be 5.04.

As to GSEAAVIPLRLGCTQVTQDGDIPN [D10R], the protein stability index stood at 5.07.

Turning to GSEAAVIPLELGCTQVTQDGDIPN [D10E], the protein stability index was determined as 5.18.

Regarding GSEAAVIPLMLGCTQVTQDGDIPN [D10M], the protein stability index amounted to 4.02.

As to GSEAAVIPLFLGCTQVTQDGDIPN [D10F], the protein stability index stood at 3.9.

Take GSEAAVIPLCLGCTQVTQDGDIPN [D10C]: the protein stability index was determined as 4.38.

For the variant GSEAAVIPLTLGCTQVTQDGDIPN [D10T], the protein stability index amounted to 5.34.

Regarding GSEAAVIPLHLGCTQVTQDGDIPN [D10H], the protein stability index amounted to 5.26.

Regarding GSEAAVIPLKLGCTQVTQDGDIPN [D10K], the protein stability index is 4.85.

Regarding GSEAAVIPLQLGCTQVTQDGDIPN [D10Q], the protein stability index was 4.92.

For GSEAAVIPLVLGCTQVTQDGDIPN [D10V], the protein stability index amounted to 4.48.

For GSEAAVIPLSLGCTQVTQDGDIPN [D10S], the protein stability index was found to be 5.15.

In the case of GSEAAVIPLYLGCTQVTQDGDIPN [D10Y], the protein stability index was determined as 4.39.

On to GSEAAVIPLGLGCTQVTQDGDIPN [D10G], for which the protein stability index amounted to 5.29.

Consider GSEAAVIPLWLGCTQVTQDGDIPN [D10W], for which the protein stability index came to 4.02.

GSEAAVIPLNLGCTQVTQDGDIPN [D10N]: the protein stability index stood at 5.14.

For GSEAAVIPLPLGCTQVTQDGDIPN [D10P], the protein stability index was determined as 5.26.

In the case of GSEAAVIPLILGCTQVTQDGDIPN [D10I], the protein stability index stood at 3.7.

As to GSEAAVIPLLLGCTQVTQDGDIPN [D10L], the protein stability index came to 4.2.

With GSEAAVIPLALGCTQVTQDGDIPN [D10A], the protein stability index amounted to 5.39.

As to GSEAAVIPLDLGCGQVTQDGDIPN [T14G], the protein stability index is 5.17.

Consider GSEAAVIPLDLGCFQVTQDGDIPN [T14F], for which the protein stability index was determined as 3.97.

Take GSEAAVIPLDLGCCQVTQDGDIPN [T14C]: the protein stability index was determined as 4.97.

With GSEAAVIPLDLGCHQVTQDGDIPN [T14H], the protein stability index turned out to be 4.91.

For GSEAAVIPLDLGCQQVTQDGDIPN [T14Q], the protein stability index was 5.57.

Consider GSEAAVIPLDLGCAQVTQDGDIPN [T14A], for which the protein stability index was found to be 5.29.

Consider GSEAAVIPLDLGCLQVTQDGDIPN [T14L], for which the protein stability index stood at 5.17.

Consider GSEAAVIPLDLGCNQVTQDGDIPN [T14N], for which the protein stability index was found to be 5.31.

As for GSEAAVIPLDLGCKQVTQDGDIPN [T14K], the protein stability index is 5.46.

For the variant GSEAAVIPLDLGCWQVTQDGDIPN [T14W], the protein stability index came out at 4.16.

For the variant GSEAAVIPLDLGCIQVTQDGDIPN [T14I], the protein stability index worked out at 4.99.

For GSEAAVIPLDLGCDQVTQDGDIPN [T14D], the protein stability index is 5.25.

As for GSEAAVIPLDLGCVQVTQDGDIPN [T14V], the protein stability index turned out to be 5.31.

Turning to GSEAAVIPLDLGCRQVTQDGDIPN [T14R], the protein stability index amounted to 4.41.

For the variant GSEAAVIPLDLGCMQVTQDGDIPN [T14M], the protein stability index is 4.86.

GSEAAVIPLDLGCYQVTQDGDIPN [T14Y]: the protein stability index amounted to 5.09.

For the variant GSEAAVIPLDLGCEQVTQDGDIPN [T14E], the protein stability index is 5.51.

Turning to GSEAAVIPLDLGCSQVTQDGDIPN [T14S], the protein stability index is 5.27.

On to GSEAAVIPLDLGCPQVTQDGDIPN [T14P], for which the protein stability index turned out to be 5.49.

As to GSEAAVIPLDLGCTQVPQDGDIPN [T17P], the protein stability index came out at 5.44.

In the case of GSEAAVIPLDLGCTQVNQDGDIPN [T17N], the protein stability index amounted to 5.19.

As for GSEAAVIPLDLGCTQVEQDGDIPN [T17E], the protein stability index worked out at 5.68.

Regarding GSEAAVIPLDLGCTQVAQDGDIPN [T17A], the protein stability index stood at 5.21.

As for GSEAAVIPLDLGCTQVGQDGDIPN [T17G], the protein stability index came to 5.

In the case of GSEAAVIPLDLGCTQVYQDGDIPN [T17Y], the protein stability index was 4.87.

GSEAAVIPLDLGCTQVCQDGDIPN [T17C]: the protein stability index is 5.19.

Regarding GSEAAVIPLDLGCTQVFQDGDIPN [T17F], the protein stability index stood at 5.

For the variant GSEAAVIPLDLGCTQVWQDGDIPN [T17W], the protein stability index was 4.69.

As for GSEAAVIPLDLGCTQVLQDGDIPN [T17L], the protein stability index was found to be 4.88.

Regarding GSEAAVIPLDLGCTQVVQDGDIPN [T17V], the protein stability index turned out to be 5.37.

As to GSEAAVIPLDLGCTQVIQDGDIPN [T17I], the protein stability index was found to be 4.75.

In the case of GSEAAVIPLDLGCTQVSQDGDIPN [T17S], the protein stability index stood at 5.5.

As to GSEAAVIPLDLGCTQVMQDGDIPN [T17M], the protein stability index worked out at 5.14.

In the case of GSEAAVIPLDLGCTQVKQDGDIPN [T17K], the protein stability index was determined as 5.4.

With GSEAAVIPLDLGCTQVHQDGDIPN [T17H], the protein stability index turned out to be 5.17.

Regarding GSEAAVIPLDLGCTQVQQDGDIPN [T17Q], the protein stability index amounted to 5.24.

Regarding GSEAAVIPLDLGCTQVRQDGDIPN [T17R], the protein stability index amounted to 5.18.
